Data on 8 molecules can be found in patent publication US20140112930A1 (published 2014).

Changes are numbered by the printed parent chain.

B1: H1H685P (antibody, human IgG1, V domains shown)
VH: EVQLVESGGGLVQPGGSLRLSCAASGFTFSSYDIHWVRQATGKGLEWVSAIGPAGDTYYPGSVKGRFTISRENAKNSLYLQMNSLRAGDTAVYYCARGLITFGGLIAPFDYWGQGTLVTVSS
VL: EIVLTQSPGTLSLSPGERATLSCRASQSVSSTYLAWYQQKPGQAPRLLIYGASSRATGIPDRFSGSGSGTDFTLTISRLEPEDFAVYYCQHYDNSQTFGQGTKVEIK
notes: Fully human antibody, human IgG1
B2: H1H749N (antibody, V domains shown)
VH: QVQLVESGGGVVQPGRSLRLSCAASGFTFSSYGMHWVRQAPGKGLEWVAVIWYDEFNKYYADSVKGRFTISRDNSKNTLYLQMNSLRAEDTAVYYCARERESGYSYGFDYWGQGTLVTVSS
VL: EIVMTQSPATLSVSPGERATLSCRAGQSVSSNLAWYQQKPGQAPRLLIYGASTRATGIPARFSGSGSGTEFTLTISSLQSEDFAVYYCQQYNNWWTFGQGTKVEIK
B3: H1H695P (antibody, V domains shown)
VH: QVQLVESGGGVVQPGRSLRLSCAASGFTFSSYGMHWVRQAPGKGLEWVAVMWYDETNKYYADSVKGRFTISRDNSKNTLYLQMNSLRAEDTAVYYCARYSGYEDYYHGMDVWGQGTTVTVS
VL: B2 VL with L11P, G26S, V29I, Q90H, W95I, K102R, V103L
B4: H1H750N (antibody, V domains shown)
VH: QVKLVESGGGVVQPGRSLRVSCAASGFTFSSYGMHWVRQAPGKGLEWLAIIWYDGDNKYYSDSVKGRFTISRDNSKNTLYLQMNSLRAEDTAEYYCVRDASIASRFLDYWGQGTLVTVSS
VL: DIQMTQSPSSLSASIGDRVTITCRATQDINNYLAWFQQKPGKAPKSLIYATSNLQSGVPSKFSGSGSGTDYTLTISSLQPEDFSTYYCQQYHSYPLTFGGGTKVEIK
B5: H1H696P (antibody, V domains shown)
VH: QVQLVESGGGLVKPGGSLRLSCAASGFTFSDYYMSWIRQAPGKGLEWVSYISYTGRTIYYADSVKGRFTISRDNAKNSLYLQMNSLRAEDTAVYYCARDTDYGDFFDYWGQGTLVTVSS
VL: B4 VL with I15V, T26S, D28G, N30S, T51A, N53S, Y71F, S84A, H92N
B6: H1H743N (antibody, V domains shown)
VH: EVQLLESGGGLVQPGGSLRLSCAASGFTFRKYAMSWVRQAPGKGLEWVSVISVSGGNTYYADSVKGRFTISRDNSKNTLYLQLNSLRAEDTAVYYCAKDLTDIVLMVYVDYWGQGTLVTVSS
VL: DIQMTQSPSSVSASVGDRVTITCRASQDIDRWLAWYQQKPGKAPKLLIYAASSLQSGVPSRFSGSGSGTDFTLTISTLQPEDFATYYCQQANSLPFTFGGGTKVEIK
B7: H1H693P (antibody, V domains shown)
VH: EVQLVESGGGLVQPGESLRLSCAASGFTFSSYAMSWVRQGPGKGLEWVSSISGSGGTTYYADSVEGRFTISRDNSKNTLYLHMNSLRAEDTAVYYCAKDFLDYSTYLAFDLWGQGTMVTVSS
VL: B6 VL with D28G, D30S, R31S, T77S, L94F, F96R, G100Q
B8: H1H690P (antibody, V domains shown)
VH: B7 VH with S52T, G56D, E65K
VL: EIVLTQSPATLSLSPGERATLSCRASQSVSSYLTWYQQKPGQAPRLLSYDASNRATGIPARFSGSGSGTDFTLTISSLEPEDFAVYYCQQRSNWPLTFGGGTKVEIK

T7 sequence (chain, as listed by the source limits assumed): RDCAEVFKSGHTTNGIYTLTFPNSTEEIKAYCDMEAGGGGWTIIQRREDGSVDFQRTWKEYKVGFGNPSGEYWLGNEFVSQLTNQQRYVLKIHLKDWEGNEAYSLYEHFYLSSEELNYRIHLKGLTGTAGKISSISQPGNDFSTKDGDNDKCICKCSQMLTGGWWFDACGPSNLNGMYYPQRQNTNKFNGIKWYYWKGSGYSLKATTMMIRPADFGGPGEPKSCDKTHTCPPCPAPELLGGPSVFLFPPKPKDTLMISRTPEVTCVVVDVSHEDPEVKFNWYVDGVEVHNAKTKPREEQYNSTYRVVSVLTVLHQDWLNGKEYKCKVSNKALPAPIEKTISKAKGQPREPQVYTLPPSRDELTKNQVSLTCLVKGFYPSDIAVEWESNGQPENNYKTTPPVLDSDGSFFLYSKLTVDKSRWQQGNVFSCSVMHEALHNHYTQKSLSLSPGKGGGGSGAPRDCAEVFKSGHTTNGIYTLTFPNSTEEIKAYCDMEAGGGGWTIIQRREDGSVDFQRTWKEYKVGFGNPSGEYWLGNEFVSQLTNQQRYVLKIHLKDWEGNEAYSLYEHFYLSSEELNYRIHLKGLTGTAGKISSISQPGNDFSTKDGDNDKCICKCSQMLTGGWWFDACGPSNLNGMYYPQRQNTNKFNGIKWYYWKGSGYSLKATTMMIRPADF

The target of the first experiment is T1, Mouse Ang-2FD-hFc (mouse (Mus musculus)).
T1 construct: also called dimeric mouse Ang-2FD
T1 sequence (chain, as listed by the source limits assumed): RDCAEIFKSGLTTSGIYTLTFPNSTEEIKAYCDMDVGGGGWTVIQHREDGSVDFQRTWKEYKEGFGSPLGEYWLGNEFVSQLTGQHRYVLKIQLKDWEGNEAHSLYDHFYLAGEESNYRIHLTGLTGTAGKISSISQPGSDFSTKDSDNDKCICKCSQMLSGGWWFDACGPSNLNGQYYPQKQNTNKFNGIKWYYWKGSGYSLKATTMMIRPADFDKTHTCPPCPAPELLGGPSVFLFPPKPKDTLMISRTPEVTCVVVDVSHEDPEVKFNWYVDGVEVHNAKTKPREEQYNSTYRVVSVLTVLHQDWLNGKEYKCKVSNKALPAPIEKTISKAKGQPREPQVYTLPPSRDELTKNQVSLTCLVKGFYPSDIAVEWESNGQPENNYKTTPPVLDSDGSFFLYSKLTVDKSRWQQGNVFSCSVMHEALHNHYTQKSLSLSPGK
As to the kind of experiment: blocking ELISA, 16.67 nM antibody, Ang-2FD-hFc to coated hTie-2-mFc. The protocol:
The plate was then blocked with PBS (Irvine Scientific, Santa Ana, Calif.) containing 0.5% BSA (Sigma-Aldrich Corp., St. Louis, Mo.) for one hour at room temperature. […] Human, mouse or monkey Ang-2FD protein conjugated to human IgG (Ang-2FD-hFc) were added to final concentrations of 2 nM, 8 nM, or 2 nM respectively and incubated for one hour at room temperature. The antibody/Ang-2FD-Fc mixture was then added to the plate containing hTie-2-mFc and incubated for one hour at room temperature. Detection of Ang-2FD-hFc bound to hTie-2-mFc protein was determined with Horse-Radish Peroxidase (HRP) conjugated to a-human IgG antibody (Jackson Immuno Research Lab, West Grove, Pa.) and developed by standard colorimetric response using tetramethylbenzidine (TMB) substrate (BD Biosciences, San Jose, Calif.). Absorbance was read at OD₄₅₀ for 0.1 sec.
For orientation: An ELISA detects its analyte on a solid surface through an enzyme-linked reagent.
As for B1, the “Percent Blocking of Ang-2FD Binding to Tie-2” value is 97.1%.

The target of a further experiment is T2, Monomeric hAng-2FD (human, UniProt O15123 282-496).
T2 construct: also called fibrinogen-like domain of human Ang2; Human Ang-2FD
T2 sequence: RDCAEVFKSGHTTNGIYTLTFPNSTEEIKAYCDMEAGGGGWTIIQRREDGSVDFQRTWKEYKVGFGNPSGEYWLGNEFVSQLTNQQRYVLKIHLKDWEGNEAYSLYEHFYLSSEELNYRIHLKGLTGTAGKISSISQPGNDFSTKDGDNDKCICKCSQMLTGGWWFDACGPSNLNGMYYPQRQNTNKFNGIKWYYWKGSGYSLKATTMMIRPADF
Description: SPR, captured Ab. In general terms: In SPR one partner is held on a chip, and binding of the other changes the refractive index at the surface.
The Kd is the concentration at which binding is half-saturated. The molecule B2 showed a Kd of 1.13 nM and a T1/2 of 0.558 h.

With B3, binding was characterised by a dissociation constant (Kd) of 1.12 nM.

For B4, the Kd turned out to be 0.787 nM and the T1/2 was 0.503 h.

Take B5: the Kd was 38.4 nM and the T1/2 was 0.00333 h.

In turn, B6 displayed a Kd of 2.35 nM and a T1/2 of 0.55 h.

On to B7, for which the Kd came out at 44.8 nM and the T1/2 came to 0.0102 h.

In turn, B8 came in with a Kd of 0.594 nM and a T1/2 of 0.419 h.

The next experiment addresses T3, wild-type human Ang-2 (hAng-2-WT) (human, UniProt O15123 19-496).
T3 construct: called full-length wild-type; also called Full-length wild-type human Ang-2
T3 sequence: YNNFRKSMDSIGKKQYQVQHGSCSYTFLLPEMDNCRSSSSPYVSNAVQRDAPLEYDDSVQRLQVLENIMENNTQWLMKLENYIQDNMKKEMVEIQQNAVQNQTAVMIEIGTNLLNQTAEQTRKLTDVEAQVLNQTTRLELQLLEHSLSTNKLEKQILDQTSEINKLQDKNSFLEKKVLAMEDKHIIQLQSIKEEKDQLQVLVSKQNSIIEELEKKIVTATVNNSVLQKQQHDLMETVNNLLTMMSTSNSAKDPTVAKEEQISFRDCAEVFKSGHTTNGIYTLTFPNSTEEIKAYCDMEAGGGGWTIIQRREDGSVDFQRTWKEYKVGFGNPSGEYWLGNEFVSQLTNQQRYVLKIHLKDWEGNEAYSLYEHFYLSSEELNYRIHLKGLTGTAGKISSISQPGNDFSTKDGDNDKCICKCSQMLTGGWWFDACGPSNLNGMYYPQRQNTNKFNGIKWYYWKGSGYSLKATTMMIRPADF
Description: SPR, captured Ab.
The molecule B2 registered a Kd of 0.0125 nM and a T1/2 of 30.6 h.

On to B3, for which the affinity, expressed as Kd, was 0.0311 nM and the T1/2 is 29.5 h.

Regarding B4, the equilibrium dissociation constant (Kd) was 0.0095 nM and the T1/2 stood at 74 h.

Turning to B5, the Kd was 0.0403 nM and the T1/2 worked out at 10.7 h.

Molecule B6 had a Kd of 0.00948 nM and a T1/2 of 65.5 h.

Take B7: the Kd came out at 0.425 nM and the T1/2 came to 1.67 h.

On to B8, for which the Kd turned out to be 0.0124 nM and the T1/2 worked out at 26.1 h.

The target in a further experiment is T4, Dimeric Mouse Ang-2FD conjugated to human IgG1 (mouse (Mus musculus); human).
T4 construct: also called Mouse Ang-2FD-hFc
As to the kind of experiment: SPR, captured Ab, RT. As for the experimental part: (§1) Antibody was captured on a goat anti-mouse IgG polyclonal antibody surface, a goat anti-human κ polyclonal antibody (Southern Biotech, Birmingham, Ala.) surface or a goat anti-human IgG polyclonal antibody (Jackson Immuno Research Lab, West Grove, Pa.) surface created through direct amine coupling to a BIACORE™ CM5 sensor chip to form a captured antibody surface. […] Antigen-antibody binding and dissociation were monitored in real time at room temperature. Kinetic analysis was performed to calculate KD and half-life of antigen/antibody complex dissociation.
In turn, B2 came in with a Kd of 0.177 nM and a T1/2 of 1.6 h.

B3: the affinity, expressed as Kd, was 0.347 nM and the T1/2 was found to be 2.07 h.

Regarding B4, binding was put at a Kd of 0.218 nM and the T1/2 worked out at 2.02 h.

In turn, B5 gave a Kd of 0.402 nM and a T1/2 of 0.627 h.

Take B6: the Kd was determined as 0.124 nM and the T1/2 is 3.88 h.

For B7, the Kd turned out to be 0.446 nM and the T1/2 was 1.06 h.

B8 gave a Kd of 0.0913 nM and a T1/2 of 1.75 h.

The target of another experiment is T5, Dimeric Monkey Ang-2FD conjugated to human IgG1 (monkey (Macca fascicularis); human).
T5 construct: also called Monkey Ang-2FD-hFc
T5 sequence (chain, as listed by the source limits assumed): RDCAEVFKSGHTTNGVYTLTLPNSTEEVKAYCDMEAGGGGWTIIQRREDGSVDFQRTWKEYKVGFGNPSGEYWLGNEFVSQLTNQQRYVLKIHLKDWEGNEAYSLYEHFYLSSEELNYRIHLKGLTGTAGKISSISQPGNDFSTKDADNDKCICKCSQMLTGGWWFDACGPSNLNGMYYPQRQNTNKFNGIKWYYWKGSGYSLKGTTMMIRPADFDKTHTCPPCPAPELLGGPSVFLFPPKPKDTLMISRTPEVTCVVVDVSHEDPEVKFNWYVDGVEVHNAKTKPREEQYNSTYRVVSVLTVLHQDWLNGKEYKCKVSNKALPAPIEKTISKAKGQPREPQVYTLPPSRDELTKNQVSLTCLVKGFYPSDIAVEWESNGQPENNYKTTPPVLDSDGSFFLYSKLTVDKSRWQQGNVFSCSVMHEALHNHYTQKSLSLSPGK
As to the kind of experiment: SPR, captured Ab, RT. The protocol: as §1
Regarding B2, the affinity, expressed as Kd, was 0.407 nM and the T1/2 worked out at 2.38 h.

In turn, B3 gave a Kd of 0.44 nM and a T1/2 of 1.4 h.

For the molecule B4, the Kd is 0.199 nM and the T1/2 amounted to 4.07 h.

B5 yielded a Kd of 0.354 nM and a T1/2 of 0.61 h.

On to B6, for which the dissociation constant (Kd) turned out to be 0.0965 nM and the T1/2 amounted to 13 h.

Molecule B7 displayed a Kd of 1.17 nM and a T1/2 of 0.293 h.

In turn, B8 returned a Kd of 0.0556 nM and a T1/2 of 3.25 h.

Another experiment deals with T6, Dimeric Human Ang-2FD conjugated to human IgG1 (human).
T6 construct: also called Human Ang-2FD-hFc; hAng-2FD-hFc
T6 sequence (chain, as listed by the source limits assumed): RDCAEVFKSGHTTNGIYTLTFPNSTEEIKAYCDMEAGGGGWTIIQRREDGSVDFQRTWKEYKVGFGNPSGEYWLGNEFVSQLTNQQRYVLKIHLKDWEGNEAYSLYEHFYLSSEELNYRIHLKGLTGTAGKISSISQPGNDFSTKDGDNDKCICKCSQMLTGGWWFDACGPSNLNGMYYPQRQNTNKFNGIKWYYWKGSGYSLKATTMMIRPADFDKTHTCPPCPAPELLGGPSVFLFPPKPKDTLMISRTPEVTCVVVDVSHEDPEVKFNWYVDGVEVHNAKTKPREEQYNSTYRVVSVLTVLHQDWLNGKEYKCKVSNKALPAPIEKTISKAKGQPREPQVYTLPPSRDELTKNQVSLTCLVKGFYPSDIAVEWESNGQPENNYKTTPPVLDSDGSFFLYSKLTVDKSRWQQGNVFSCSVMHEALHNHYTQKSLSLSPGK
Description: SPR, captured Ab, RT. As for the experimental part: as §1
B2 gave a Kd of 0.118 nM and a T1/2 of 1.82 h.

Turning to B3, the dissociation constant (Kd) turned out to be 0.245 nM and the T1/2 was found to be 2.45 h.

Molecule B4 showed a Kd of 0.164 nM and a T1/2 of 2.12 h.

Regarding B5, the Kd is 0.289 nM and the T1/2 stood at 0.647 h.

For B6, the Kd turned out to be 0.0882 nM and the T1/2 worked out at 4.23 h.

In the case of B7, binding was characterised by a dissociation constant (Kd) of 0.5 nM and the T1/2 was determined as 0.618 h.

The molecule B8 gave a Kd of 0.079 nM and a T1/2 of 2.1 h.

A further experiment addresses T7, human bow-Ang-2 tetrameric construct (hBA2) (human).
T7 construct: also called human BA2; hBA2-hIgG1
As to the kind of experiment: SPR, captured Ab.
The molecule B2 had a Kd of 0.0325 nM and a T1/2 of 3.92 h.

Consider B3, for which the Kd was 0.0401 nM and the T1/2 came out at 4.24 h.

As to B4, the Kd came to 0.0369 nM and the T1/2 worked out at 4.73 h.

The molecule B5 registered a Kd of 0.111 nM and a T1/2 of 0.858 h.

B6 gave a Kd of 0.00971 nM and a T1/2 of 18.6 h.

With B7, the Kd was found to be 0.299 nM and the T1/2 was 0.478 h.

B8 returned a Kd of 0.0179 nM and a T1/2 of 4.99 h.
